In patent US20090162366A1 (KIRIN PHARMA, published 2009):

Assays:
OVA = target: T1, OVA (UniProt P01012 2-386); experiment: ELISA
T1 sequence: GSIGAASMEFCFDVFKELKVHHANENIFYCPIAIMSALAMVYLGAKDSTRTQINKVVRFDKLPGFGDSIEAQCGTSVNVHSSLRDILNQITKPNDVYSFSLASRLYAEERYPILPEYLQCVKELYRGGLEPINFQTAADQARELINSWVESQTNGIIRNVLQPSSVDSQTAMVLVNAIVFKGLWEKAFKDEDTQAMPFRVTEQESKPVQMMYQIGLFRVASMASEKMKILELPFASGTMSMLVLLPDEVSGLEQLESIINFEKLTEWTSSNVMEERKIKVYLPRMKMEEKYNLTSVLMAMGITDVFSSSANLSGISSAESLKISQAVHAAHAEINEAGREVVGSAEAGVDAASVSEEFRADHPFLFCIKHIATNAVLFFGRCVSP

BSA = BSA (UniProt P02769 25-607); experiment: ELISA
Chain of BSA (P02769 25-607 limits assumed): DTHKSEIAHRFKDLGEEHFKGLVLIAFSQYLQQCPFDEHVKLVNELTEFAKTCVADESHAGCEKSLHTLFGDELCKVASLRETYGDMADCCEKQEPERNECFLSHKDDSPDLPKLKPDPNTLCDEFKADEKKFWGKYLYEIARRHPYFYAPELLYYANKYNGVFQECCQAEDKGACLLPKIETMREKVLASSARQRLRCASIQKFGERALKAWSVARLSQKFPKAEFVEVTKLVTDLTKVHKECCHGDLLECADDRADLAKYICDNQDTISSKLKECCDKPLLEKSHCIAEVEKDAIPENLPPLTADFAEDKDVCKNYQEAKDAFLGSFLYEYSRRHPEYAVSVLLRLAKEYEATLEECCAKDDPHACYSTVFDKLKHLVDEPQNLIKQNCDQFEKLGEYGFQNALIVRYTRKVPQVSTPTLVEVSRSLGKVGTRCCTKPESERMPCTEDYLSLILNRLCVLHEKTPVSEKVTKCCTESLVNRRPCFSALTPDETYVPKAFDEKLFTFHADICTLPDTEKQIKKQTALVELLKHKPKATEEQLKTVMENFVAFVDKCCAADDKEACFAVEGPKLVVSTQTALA

B1: N547 (antibody, V domains shown)
VH: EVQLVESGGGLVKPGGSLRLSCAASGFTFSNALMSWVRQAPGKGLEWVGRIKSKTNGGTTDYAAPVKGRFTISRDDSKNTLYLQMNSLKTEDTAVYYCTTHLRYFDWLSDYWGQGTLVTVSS
VL: QSVLTQPPSMSAAPGQKVTISCSGSSSNIGNNYISWYQQLPGTAPKVLIYDNNKRPSGIPDRFSGSKSGTSATLGITGLQTGDEADYYCGSWDSSLSAGVFGTGTKVTVLG
B1: no binding (tested: below 0.1 at OD450nm) (OVA); no binding (tested: below 0.1 at OD450nm) (BSA).

B2: C40 (antibody, V domains shown)
VH: QLQLQESGPGLVKPSETLSLTCTVSGGSISSSFYYCGWIRQPPGKGLEWIGSIYYRGSTYYNPSLKSRVTISVDTSKNQFSLKLSSVTAADTAVYYCARRVTMVRGVKGDYFDYWGQGTLVTVSS
VL: DIQMTQSPSSLSASVGDRVTITCRASQGISSWLAWYQQKPEKVPKSLIYAASSLQSGVPSRFSGSGSGTDFTLTISSLQPEDFATYYCQQYNYYPLTFGGGTKVEIKR
B2: no binding (tested: below 0.1 at OD450nm) (OVA); no binding (tested: below 0.1 at OD450nm) (BSA).

B3: C40G1 (antibody, V domains shown)
VH: QLQLQESGPGLVKPSETLSLTCTVSGGSISSSFYYCGWIRQPPGKGLEWIGSIYYRGSTYYNPSLKSRVTISVDTSKNQFSLKLSSVTAADTAVYYCARRVTMVRGVKGDYFDYWGQGTLVTVSS
VL: DIQMTQSPSSLSASVGDRVTITCRASQGISSWLAWYQQKPEKVPKSLIYAASSLQSGVPSRFSGSGSGTDFTLTISSLQPEDFATYYCQQYNYYPLTFGGGTKVEIKR
B3: no binding (tested: below 0.1 at OD450nm) (OVA); no binding (tested: below 0.1 at OD450nm) (BSA).

B4: L66 (antibody, V domains shown)
VH: EVQLVESGGGVVRPGGSLRLSCAASGFTFDDYGMSWVRQAPGKGLEWVSGINWNGGSTGYADSVKGRFTISRDNAKNSLYLQMNSLRAEDTALYYCARDRVTMVRGVIMDYYGMDVWGQGTTVTVSS
VL: QTVVTQEPSLTVSPRGTVTLTCSSSTGAVTSGYYPGWFQLKPGQAPMSLIYSARKKHSWTPARFSGSLLGGKAALTLSGVQPEDEAEYYCLLYYGGAYVFGTGTKVTVLG
B4: no binding (tested: below 0.1 at OD450nm) (OVA); no binding (tested: below 0.1 at OD450nm) (BSA).
